Assay results published in patent US20230090114A1, “METHODS FOR PROMOTING WEIGHT LOSS” (89BIO LTD., priority 2020, published 2023).

Legend:
[1] = Semi-fasted blood glucose (4 hours of fasting); type: in vivo, CD-1 mice
[2] = Body weight of CD-1 mice, 4-week SC treatment; type: in vivo
Procedure: Detailed Methods: Adult male CD-1 mice at 6 weeks of age at receipt (with an expected weight of 35-39 g) were purchased from Charles River (St Germain sur l'Arbresle, France). From receipt, mice were singly housed and allowed ad libitum access to water and to a control diet (pellet A04; SAFE, Villemoisson-sur-Orge, France), unless otherwise noted (see Section D.). Throughout the study, animals were maintained in an ambient temperature (22.0±1.0° C.) and humidity (40-50%) controlled room on a 12-h light/12-h dark cycle (9:00 PM: Light ON/9:00 AM Light OFF).
At receipt and until the end of the experiment, all animals fed the control diet (A04 pellet). Following the acclimation and habituation periods, forty-eight (48) mice were subcutaneously treated either with vehicle, liraglutide (as the benchmark) or 89BIO-100 (3 different doses tested).
From T1 to T28, vehicle and 89BIO100 (at the 3 different doses) were administrated by subcutaneous (SC) injection three times a week, while the treatment with liraglutide was administrated by subcutaneous route, twice a day, every day. It was important to notice that the first dosing was done just before the […] (at 9:00 AM) and the second dosing was done 8 hours after the first one (at 5:00 PM). Throughout the treatment period, FI and BW were daily measured.
General Methods: Naive CD-1 mice were treated subcutaneously (SC) for 4 weeks at ambient temperature with BIO89-100 at doses of 0, 0.3, 1.0 and 3.0 mg/kg (3qW×4 weeks) or with liraglutide at 0.2 mg/kg (BID×4 W; SC). BW and FC were measured daily throughout the treatment period. To investigate the impact of BIO89-100 on energy expenditure, the respiratory exchanges (VO2 and VCO2) were recorded during 3 distinct sessions of METABOpack™, a multiparametric approach allowing an automated and simultaneous recording of FC, water intake, respiratory exchanges and spontaneous activity. Meal pattern analysis was conducted on the high-resolution recordings of FC. The body composition (fat, lean and fluid masses) was analyzed 3 times during the study by the mean of Time-Domain Nuclear Magnetic Resonance (TD-NMR).

[3] = Organ/tissue weights on T28; type: in vivo, CD-1 mice; details: for eWAT weight: T28
Procedure: On T28, after 4 hours of fasting, a terminal sampling of blood and organs/tissues was performed on anaesthetized mice (by a mixture of Ketamine/Xylazine, 80/10 mg/kg). A large blood sample was collected by cardiac puncture, and the following organ/tissues were collected, weighed, snap-frozen in liquid nitrogen and stored at −80° C. for further analyses: […]

B1: Mutant FGF21-GalNAc-SA-PEG-20 kDa (conjugate)
chain: MHPIPDSSPLLQFGGQVRQRYLYTDDAQQTEAHLEIREDGTVGGAADQSPESLLQLKALKPGVIQILGVKTSRFLCQRPDGALYGSLHFDPEACSFRELLLEDGYNVYQSEAHGLPLHLPGNKSPHRDPAPRGPARFLPLPGLPPALPEPPGILAPQPPDVGSSDPLSMVGPTQGASPSYAS
[1]; T3 and T16, between 89BIO-treated groups
  blood glucose levels: no significant difference
[1]; T3 and T16, whatever the dose, vs Liraglutide
  blood glucose levels: higher blood glucose levels
[1]; T3 and T16, whatever the dose, vs vehicle
  blood glucose levels: did not alter
[1]; T28, 3 mg/kg, vs 0.3 and 1 mg/kg
  blood glucose levels: higher blood glucose levels
[1]; T28, 3 mg/kg, vs vehicle
  blood glucose levels: significant increase in blood glucose levels
[1]; T29 (so in the source), 0.3 and 3 mg/kg, vs Liraglutide
  blood glucose levels: increased
[1]; wild-type CD-1 mice, in contrast to Liraglutide (summary)
  hypoglycemic action: did not have a hypoglycemic action
[2]; 0.3 mg/kg, vs Liraglutide, T2-T11, T13-T16
  delta body weight: increase in delta body weight
[2]; 0.3 mg/kg, vs Liraglutide, T2-T24 and T26
  body weight: greater body weight
[2]; 0.3 mg/kg, vs vehicle, T3-T6
  delta body weight: increase in delta body weight
[2]; 1 mg/kg, vs 0.3 mg/kg, T6-T21
  delta body weight: significant decrease in delta body weight
[2]; 1 mg/kg, vs Liraglutide, T2-T5
  body weight: greater body weight
[2]; 1 mg/kg, vs vehicle, T8-T21, T23, T24
  delta body weight: marked decrease in delta body weight
[2]; 3 mg/kg, vs 0.3 mg/kg, T5-T28
  delta body weight: marked decrease in delta body weight
[2]; 3 mg/kg, vs 1 mg/kg, T11, T12, T13, T15
  delta body weight: significant decrease in delta body weight
[2]; 3 mg/kg, vs 0.3 and 1 mg/kg, over treatment period
  body weight: reduced the body weight
[2]; 3 mg/kg, vs Liraglutide, T8-T13 and T25
  delta body weight: significant decrease in delta body weight
[2]; 3 mg/kg, vs Liraglutide, T11-T13
  body weight: lower body weight
[2]; 3 mg/kg, vs vehicle, T3 and T6-T28
  delta body weight: marked decrease in delta body weight
[2]; 3 mg/kg, vs vehicle, except T2, T3, T4
  body weight: lower body weight
[2]; 0.3 and 1 mg/kg, vs vehicle
  body weight: did not show any difference in body weight
[2]; 1 and 3 mg/kg, throughout treatment period (summary)
  body weight: lower body weight in dose-dependent manner
[2]; 1 and 3 mg/kg, vs Liraglutide, T2-T4
  delta body weight: increase in delta body weight
[2]; naive CD-1 mice, 0.3-3.0 mg/kg SC 3qW x 4 weeks, dose-dependent, up to
  decrease in BW: up to −13.8%
[3]; 89BIO-100 treated mice (summary)
  epididymal white adipose tissue (eWAT) weight: strongly reduced
[3]; 1 and 3 mg/kg, vs vehicle
  eWAT weight: significant decrease in eWAT weight
[3]; among the three 89BIO-100 groups
  eWAT weight: no significant difference
